Among the targets are AHNAK1, Q09666; DLG1_3, Q12959; DLG2_3, Q15700; GOPC, Q9HD26; GORASP1, Q9BQQ3; GRID2IP_2, A4D2P6; GRIP2_6, Q9C0E4; GRIP2_7, Q9C0E4; Inadl_8, Q8NI35; Inadl_9, Q8NI35; MAGI1_1, Q96QZ7; PARD3_3, Q8TEW0.
Common to all, as to test: holdup assay
Design in all cases: key: below the threshold = too weak to quantify, mostly under pKd 3.1 to 4
What all share (conditions): plain residues with an end cap or a label only (N-terminal biotin on a linker: ado-ado)

The target of the next assay is T1, APBA1_1, Q02410.
T1 sequence (Q02410 651-752, limits assumed, looked up): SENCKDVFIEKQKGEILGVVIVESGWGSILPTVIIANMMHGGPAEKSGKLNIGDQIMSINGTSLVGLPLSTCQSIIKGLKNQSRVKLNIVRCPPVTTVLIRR

The next assay has as its target T2, APBA2_1, Q99767.
T2 sequence (Q99767 563-664, limits assumed, looked up): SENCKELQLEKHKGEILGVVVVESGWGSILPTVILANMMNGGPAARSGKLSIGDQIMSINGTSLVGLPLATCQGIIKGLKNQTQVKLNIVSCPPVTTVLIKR

A further assay has as its target T3, APBA3_1, O96018.
T3 sequence (O96018 389-490, limits assumed, looked up): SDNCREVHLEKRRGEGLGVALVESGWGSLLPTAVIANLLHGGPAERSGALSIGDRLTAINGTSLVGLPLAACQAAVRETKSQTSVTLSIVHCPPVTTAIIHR

The target of another assay is T4, GRIP1_2, Q9Y3R0.
T4 sequence (Q9Y3R0 145-248, limits assumed, looked up): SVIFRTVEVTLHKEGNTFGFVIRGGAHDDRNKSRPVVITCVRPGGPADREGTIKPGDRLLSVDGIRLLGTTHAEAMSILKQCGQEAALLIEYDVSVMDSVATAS

The target in a further assay is T5, GRIP1_5, Q9Y3R0.
T5 sequence (Q9Y3R0 568-668, limits assumed, looked up): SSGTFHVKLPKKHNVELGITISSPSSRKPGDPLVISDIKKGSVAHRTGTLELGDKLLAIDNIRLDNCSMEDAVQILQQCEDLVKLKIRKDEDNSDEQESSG

For another assay, the target named is T6, MPDZ_5, O75970.
T6 sequence (O75970 695-796, limits assumed, looked up): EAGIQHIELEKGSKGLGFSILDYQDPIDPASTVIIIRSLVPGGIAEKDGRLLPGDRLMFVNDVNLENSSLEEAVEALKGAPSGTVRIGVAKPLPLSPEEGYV

The target of another assay is T7, NHERF3_1, Q5T2W1.
T7 sequence (Q5T2W1 4-100, limits assumed, looked up): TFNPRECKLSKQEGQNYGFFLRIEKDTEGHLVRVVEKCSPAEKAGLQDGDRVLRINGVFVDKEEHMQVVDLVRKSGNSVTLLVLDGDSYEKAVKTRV

The target of the next assay is T8, SHANK1, Q9Y566.
T8 sequence (Q9Y566 658-767, limits assumed, looked up): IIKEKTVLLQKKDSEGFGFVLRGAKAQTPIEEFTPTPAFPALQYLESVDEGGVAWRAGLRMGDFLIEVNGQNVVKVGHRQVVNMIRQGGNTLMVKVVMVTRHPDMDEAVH

Another assay has as its target T9, SNTB1, Q13884.
T9 sequence (Q13884 107-205, limits assumed, looked up): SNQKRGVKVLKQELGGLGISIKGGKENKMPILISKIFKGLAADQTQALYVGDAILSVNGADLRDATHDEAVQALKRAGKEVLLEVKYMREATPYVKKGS

For a further assay, the target named is T10, SNTG1, Q9NSN8.
T10 sequence (Q9NSN8 52-150, limits assumed, looked up): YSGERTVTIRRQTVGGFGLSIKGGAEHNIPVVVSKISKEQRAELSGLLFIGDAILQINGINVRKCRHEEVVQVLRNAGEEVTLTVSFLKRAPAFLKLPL

Another assay addresses T11, SNTG2, Q9NY99.
T11 sequence (Q9NY99 68-166, limits assumed, looked up): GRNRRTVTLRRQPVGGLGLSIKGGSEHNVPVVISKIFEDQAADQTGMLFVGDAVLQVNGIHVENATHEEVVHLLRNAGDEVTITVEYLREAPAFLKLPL

The next assay deals with T12, TJP3_3, O95049.
T12 sequence (O95049 375-456, limits assumed, looked up): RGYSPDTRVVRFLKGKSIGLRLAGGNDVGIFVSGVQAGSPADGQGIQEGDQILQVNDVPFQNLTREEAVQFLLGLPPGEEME

GRIP2_6, Q9C0E4, sequence (Q9C0E4 648-740): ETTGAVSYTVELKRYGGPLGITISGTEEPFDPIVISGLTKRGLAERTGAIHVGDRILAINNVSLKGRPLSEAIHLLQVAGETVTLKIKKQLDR
MAGI1_1, Q96QZ7, sequence (Q96QZ7 1-106): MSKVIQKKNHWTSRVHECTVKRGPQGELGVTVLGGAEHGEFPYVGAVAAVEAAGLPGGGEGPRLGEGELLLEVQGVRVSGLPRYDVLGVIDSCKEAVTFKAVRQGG
PARD3_3, Q8TEW0, sequence (Q8TEW0 582-685): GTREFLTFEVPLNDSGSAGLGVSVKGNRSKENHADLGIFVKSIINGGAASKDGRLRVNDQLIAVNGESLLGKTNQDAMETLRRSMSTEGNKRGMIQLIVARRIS
GRIP2_7, Q9C0E4, sequence (Q9C0E4 934-1023): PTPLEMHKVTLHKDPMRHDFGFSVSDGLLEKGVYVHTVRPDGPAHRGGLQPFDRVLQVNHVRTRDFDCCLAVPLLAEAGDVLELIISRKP
GRID2IP_2, A4D2P6, sequence (A4D2P6 272-370): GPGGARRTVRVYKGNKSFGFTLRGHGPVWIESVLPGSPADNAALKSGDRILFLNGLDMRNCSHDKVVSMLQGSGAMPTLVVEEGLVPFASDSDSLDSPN
AHNAK1, Q09666, sequence (Q09666 4-100): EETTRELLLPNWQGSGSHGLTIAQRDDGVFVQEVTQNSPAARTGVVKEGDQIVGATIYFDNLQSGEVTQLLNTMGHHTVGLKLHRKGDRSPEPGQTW
Inadl_8, Q8NI35, sequence (Q8NI35 1425-1530): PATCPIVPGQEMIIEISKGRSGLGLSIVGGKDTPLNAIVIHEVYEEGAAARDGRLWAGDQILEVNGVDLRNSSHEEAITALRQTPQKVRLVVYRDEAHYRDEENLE
GORASP1, Q9BQQ3, sequence (Q9BQQ3 1-208): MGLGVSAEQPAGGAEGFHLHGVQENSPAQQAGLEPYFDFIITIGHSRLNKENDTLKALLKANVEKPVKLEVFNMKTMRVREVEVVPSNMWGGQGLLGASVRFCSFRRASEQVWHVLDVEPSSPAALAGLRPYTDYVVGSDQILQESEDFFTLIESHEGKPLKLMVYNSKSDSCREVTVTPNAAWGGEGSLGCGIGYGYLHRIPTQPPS
DLG1_3, Q12959, sequence (Q12959 457-571): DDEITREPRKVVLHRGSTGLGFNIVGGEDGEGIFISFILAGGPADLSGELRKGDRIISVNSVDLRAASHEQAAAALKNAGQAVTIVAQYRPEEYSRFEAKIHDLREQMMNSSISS
Inadl_9, Q8NI35, sequence (Q8NI35 1530-1615): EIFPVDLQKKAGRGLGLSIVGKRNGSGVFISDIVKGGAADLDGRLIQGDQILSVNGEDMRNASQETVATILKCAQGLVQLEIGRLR

Turning to LGHTPFVDEL [UQCRC2, P22695], the pKd (commonly the negative decadic logarithm of the Kd, by convention in mol/L) with AHNAK1, Q09666 is recorded as “below the threshold”; with APBA1_1, Q02410, “below the threshold”; with APBA2_1, Q99767, “below the threshold”; with APBA3_1, O96018, “below the threshold”; with DLG1_3, Q12959, “below the threshold”; in the assay with DLG2_3, Q15700, “below the threshold”. Moreover, the pKd entry in the assay with GOPC, Q9HD26 was “below the threshold”; with GORASP1, Q9BQQ3, “below the threshold”; with GRID2IP_2, A4D2P6, “below the threshold”; with GRIP1_2, Q9Y3R0, “below the threshold”; with GRIP1_5, Q9Y3R0, “below the threshold”; in the assay with GRIP2_6, Q9C0E4, “below the threshold”. In addition, the pKd result with GRIP2_7, Q9C0E4 was “below the threshold”; with Inadl_8, Q8NI35, “below the threshold”; with Inadl_9, Q8NI35, “below the threshold”; with MAGI1_1, Q96QZ7, “below the threshold”; with MPDZ_5, O75970, “below the threshold”; in the assay with NHERF3_1, Q5T2W1 it was 4.73. Moreover, the pKd result with PARD3_3, Q8TEW0 is listed as “below the threshold”; in the assay with SHANK1, Q9Y566, “below the threshold”; with SNTB1, Q13884 it was “below the threshold”; with SNTG1, Q9NSN8 it was “below the threshold”; with SNTG2, Q9NY99, “below the threshold”; with TJP3_3, O95049 it was “below the threshold”.
Regarding QNRIITKTDV [SMCHD1, A6NHR9], the pKd entry with AHNAK1, Q09666 was “below the threshold”; with APBA1_1, Q02410, “below the threshold”; with APBA2_1, Q99767, “below the threshold”; with APBA3_1, O96018, “below the threshold”; in the assay with DLG1_3, Q12959, “below the threshold”; with DLG2_3, Q15700 it was “below the threshold”. For the same molecule, the pKd is 3.87 in the assay with GOPC, Q9HD26; “below the threshold” with GORASP1, Q9BQQ3; 3.95 in the assay with GRID2IP_2, A4D2P6; “below the threshold” with GRIP1_2, Q9Y3R0; “below the threshold” in the assay with GRIP1_5, Q9Y3R0; 3.49 in the assay with GRIP2_6, Q9C0E4. Further, the pKd result was “below the threshold” in the assay with GRIP2_7, Q9C0E4; 4.77 with Inadl_8, Q8NI35; 3.55 with Inadl_9, Q8NI35; “below the threshold” with MAGI1_1, Q96QZ7; “below the threshold” in the assay with MPDZ_5, O75970; “below the threshold” in the assay with NHERF3_1, Q5T2W1. Also, the pKd entry is “below the threshold” in the assay with PARD3_3, Q8TEW0; “below the threshold” in the assay with SHANK1, Q9Y566; 3.64 in the assay with SNTB1, Q13884; 3.48 with SNTG1, Q9NSN8; “below the threshold” with SNTG2, Q9NY99; “below the threshold” with TJP3_3, O95049.
As for GDGLDDEIAV [NOS1AP, O75052], the pKd entry with AHNAK1, Q09666 is “below the threshold”; with APBA1_1, Q02410 it was “below the threshold”; with APBA2_1, Q99767, “below the threshold”; with APBA3_1, O96018 it was “below the threshold”; in the assay with DLG1_3, Q12959, “below the threshold”; with DLG2_3, Q15700, “below the threshold”. In addition, the negative-log Kd (pKd) result with GOPC, Q9HD26 is on record as “below the threshold”; with GORASP1, Q9BQQ3 it was “below the threshold”; with GRID2IP_2, A4D2P6, “below the threshold”; with GRIP1_2, Q9Y3R0, “below the threshold”; in the assay with GRIP1_5, Q9Y3R0, “below the threshold”; with GRIP2_6, Q9C0E4, “below the threshold”. Besides, the pKd entry with GRIP2_7, Q9C0E4 was “below the threshold”; in the assay with Inadl_8, Q8NI35, “below the threshold”; with Inadl_9, Q8NI35 it was 3.69; with MAGI1_1, Q96QZ7, “below the threshold”; in the assay with MPDZ_5, O75970 it was “below the threshold”; with NHERF3_1, Q5T2W1, “below the threshold”. Further, the pKd in the assay with PARD3_3, Q8TEW0 was 4.3; with SHANK1, Q9Y566, “below the threshold”; with SNTB1, Q13884, “below the threshold”; with SNTG1, Q9NSN8, “below the threshold”; with SNTG2, Q9NY99, “below the threshold”; with TJP3_3, O95049, “below the threshold”.
For the molecule YPKQMPLSQV [FZD8, Q9H461], the pKd result with AHNAK1, Q09666 was “below the threshold”; with APBA1_1, Q02410, “below the threshold”; with APBA2_1, Q99767 it was “below the threshold”; with APBA3_1, O96018 it was “below the threshold”; in the assay with DLG1_3, Q12959, 3.64; with DLG2_3, Q15700, “below the threshold”. Further, the pKd with GOPC, Q9HD26 is 4.52; in the assay with GORASP1, Q9BQQ3, “below the threshold”; with GRID2IP_2, A4D2P6 it was 4.28; in the assay with GRIP1_2, Q9Y3R0, “below the threshold”; in the assay with GRIP1_5, Q9Y3R0, “below the threshold”; with GRIP2_6, Q9C0E4, “below the threshold”. Moreover, the pKd entry was “below the threshold” in the assay with GRIP2_7, Q9C0E4; 4.61 with Inadl_8, Q8NI35; “below the threshold” with Inadl_9, Q8NI35; “below the threshold” with MAGI1_1, Q96QZ7; “below the threshold” with MPDZ_5, O75970; “below the threshold” with NHERF3_1, Q5T2W1. Further, the pKd result was “below the threshold” in the assay with PARD3_3, Q8TEW0; “below the threshold” with SHANK1, Q9Y566; “below the threshold” with SNTB1, Q13884; 4.04 with SNTG1, Q9NSN8; “below the threshold” in the assay with SNTG2, Q9NY99; “below the threshold” with TJP3_3, O95049.

For the origin of these results see paper PMC9482650, “Quantitative fragmentomics allow affinity mapping of interactomes” (Nature Communications, 2022).
